Variants at the floor of the assay were thinned out.
Tests used:
biotinyl-Val-oxazolone = test: self-aminoacylation, catalytic enhancement (BVO) (fold over background); higher = more active; k-Seq, kA / k0A0; sequences stand for … in GGGAAUGGAUCCACAUCUACGAAUUC…UUCACUGCAGACUUGACGAAGCUG
Procedure, shortened: (§1)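 Mutagenized RNA pools (0.43 μM; 21-nt variable region) were treated with 2–1250 μM of each biotinyl-aminoacyl-oxazolone. Conditions were 50 μL HEPES/NaCl/KCl/MgCl2/CaCl2 buffer, 5% acetonitrile, pH 6.9–7.0, room temperature, 90 minutes. Catalytic enhancement, the median kA relative to the uncatalyzed rate, was derived from streptavidin capture, qPCR and Illumina sequencing.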

biotinyl-Trp-oxazolone = test: self-aminoacylation, catalytic enhancement (BWO) (fold over background); higher = more active; k-Seq, kA / k0A0; sequences stand for … in GGGAAUGGAUCCACAUCUACGAAUUC…UUCACUGCAGACUUGACGAAGCUG
Procedure, shortened: as §1

biotinyl-Ile-oxazolone = test: self-aminoacylation, catalytic enhancement (BIO) (fold over background); higher = more active; k-Seq, kA / k0A0; sequences stand for … in GGGAAUGGAUCCACAUCUACGAAUUC…UUCACUGCAGACUUGACGAAGCUG
Procedure, shortened: as §1

biotinyl-Phe-oxazolone = test: self-aminoacylation, catalytic enhancement (BFO) (fold over background); higher = more active; k-Seq, kA / k0A0; sequences stand for … in GGGAAUGGAUCCACAUCUACGAAUUC…UUCACUGCAGACUUGACGAAGCUG
Procedure, shortened: as §1

biotinyl-Met-oxazolone = test: self-aminoacylation, catalytic enhancement (BMO) (fold over background); higher = more active; k-Seq, kA / k0A0; sequences stand for … in GGGAAUGGAUCCACAUCUACGAAUUC…UUCACUGCAGACUUGACGAAGCUG
Procedure, shortened: as §1

biotinyl-Leu-oxazolone = test: self-aminoacylation, catalytic enhancement (BLO) (fold over background); higher = more active; k-Seq, kA / k0A0; sequences stand for … in GGGAAUGGAUCCACAUCUACGAAUUC…UUCACUGCAGACUUGACGAAGCUG
Procedure, shortened: as §1

Row | Sequence | self-aminoacylation (biotinyl-Val-oxazolone) | self-aminoacylation (biotinyl-Trp-oxazolone) | self-aminoacylation (biotinyl-Ile-oxazolone) | self-aminoacylation (biotinyl-Phe-oxazolone) | self-aminoacylation (biotinyl-Met-oxazolone) | self-aminoacylation (biotinyl-Leu-oxazolone)
1 | CCACACAUCAAGAAAUCGGUC [Fam1B.1 aminoacylation ribozyme variant] | 0.776 | 0.645 | 0.732 | 1.2 | 0.61 | 0.792
2 | CCACACAUCAAGCAACCGGUC [Fam1B.1 aminoacylation ribozyme variant] | 1.13 | 1.14 | 1.4 | 1.29 | 1.21 | 0.817
3 | CCACACAUCAAGCAAUAGGUC [Fam1B.1 aminoacylation ribozyme variant] | 1.02 | 0.736 | 0.864 | 1.52 | 0.698 | 0.574
4 | CCACACAUCAAGCAAUCGGAC [Fam1B.1 aminoacylation ribozyme variant] | 1.03 | 0.906 | 0.897 | 0.446 | 0.748 | 0.808
5 | CCACACAUUAAGCAAUCGGUC [Fam1B.1 aminoacylation ribozyme variant] | 0.867 | 0.62 | 0.966 | 1 | 0.709 | 0.667
6 | CCACACCUCAAACAAUCGGUC [Fam1B.1 aminoacylation ribozyme variant] | 1.13 | 4.47 | 1.24 | 7.05 | 1.04 | 1.29
7 | CCACACCUGAAGCAAUCGGUC [Fam1B.1 aminoacylation ribozyme variant] | 1.18 | 0.911 | 1.01 | 0.952 | 0.903 | 0.946
8 | CCACACGCCAAGCAAUCGGUC [Fam1B.1 aminoacylation ribozyme variant] | 1.23 | 0.555 | 0.961 | 0.829 | 1.29 | 0.862
9 | CCACACGUCAAGCAAUCAGUC [Fam1B.1 aminoacylation ribozyme variant] | 0.88 | 0.482 | 0.647 | 0.738 | 0.665 | 0.713
10 | CCACACGUCAAGCAAUCGAUC [Fam1B.1 aminoacylation ribozyme variant] | 0.921 | 0.645 | 0.667 | 0.631 | 0.657 | 0.62
11 | CCACACGUCAAGCAAUCGGAC [Fam1B.1 aminoacylation ribozyme variant] | 2.03 | 0.681 | 1.53 | 0.667 | 1.14 | 1.36
12 | CCACACGUCAAGCAAUCGGUG [Fam1B.1 aminoacylation ribozyme variant] | 2.78 | 2.35 | 1.63 | 9.7 | 2.02 | 1.59
13 | CCACACUAAAAGCAAUCGGUC [Fam1B.1 aminoacylation ribozyme variant] | 0.959 | 0.746 | 0.867 | 0.761 | 0.688 | 0.677
14 | CCACACUACAAGCAAUCGGUG [Fam1B.1 aminoacylation ribozyme variant] | 2.85 | 5.03 | 3.62 | 31.8 | 4.92 | 6.9
15 | CCACACUACAAGCAAUCUGUC [Fam1B.1 aminoacylation ribozyme variant] | 0.566 | 0.353 | 0.496 | 0.747 | 0.271 | 0.49
16 | CCACACUACAAGCGAUCGGUC [Fam1B.1 aminoacylation ribozyme variant] | 1.29 | 1.03 | 1.09 | 0.866 | 0.977 | 1.24
17 | CCACACUACAAGGAAUCGGUC [Fam1B.1 aminoacylation ribozyme variant] | 1.03 | 0.681 | 1.01 | 0.823 | 0.84 | 0.947
18 | CCACACUACAUGCAAUCGGUC [Fam1B.1 aminoacylation ribozyme variant] | 0.888 | 0.812 | 0.737 | 0.877 | 0.743 | 0.762
19 | CCACACUCCAAGCAAUCGGGC [Fam1B.1 aminoacylation ribozyme variant] | 2.08 | 2.55 | 2.01 | 1.07 | 1.31 | 1.65
20 | CCACACUCCAAGCAAUCGGUA [Fam1B.1 aminoacylation ribozyme variant] | 1.34 | 1.25 | 1.15 | 0.936 | 0.699 | 1.27
21 | CCACACUCCAAGCAAUCGGUC [Fam1B.1 aminoacylation ribozyme variant] | 1.08 | 1.59 | 0.984 | 2.6 | 0.789 | 0.855
22 | CCACACUCCAAGGAAUCGGUC [Fam1B.1 aminoacylation ribozyme variant] | 1.31 | 1.34 | 1.35 | 1.46 | 1.32 | 1.08
23 | CCACACUGCAAGCAAUCGGCC [Fam1B.1 aminoacylation ribozyme variant] | 5.56 | 3.9 | 3.29 | 20.5 | 2.93 | 1.99
24 | CCACACUGCAAGCAAUCGGUG [Fam1B.1 aminoacylation ribozyme variant] | 3.12 | 5.82 | 3.4 | 31.5 | 4.9 | 7.11
25 | CCACACUGCAAGGAAUCGGUC [Fam1B.1 aminoacylation ribozyme variant] | 1.32 | 1.51 | 1.39 | 3.84 | 1.35 | 1.3
26 | CCACACUGCCAGCAAUCGGUC [Fam1B.1 aminoacylation ribozyme variant] | 1.58 | 1.39 | 1.5 | 2.23 | 1.36 | 1.47

Row | Sequence | self-aminoacylation (biotinyl-Val-oxazolone) | self-aminoacylation (biotinyl-Trp-oxazolone) | self-aminoacylation (biotinyl-Ile-oxazolone) | self-aminoacylation (biotinyl-Phe-oxazolone) | self-aminoacylation (biotinyl-Met-oxazolone) | self-aminoacylation (biotinyl-Leu-oxazolone)
27 | CCACACUGUAAGCAAUCGGUC [Fam1B.1 aminoacylation ribozyme variant] | 1.14 | 1.16 | 1.06 | 0.898 | 0.953 | 1.09
28 | CCACACUUAAAGAAAUCGGUC [Fam1B.1 aminoacylation ribozyme variant] | 0.785 | 0.679 | 0.754 | 0.562 | 0.734 | 0.749
29 | CCACACUUAAAGCAAUCCGUC [Fam1B.1 aminoacylation ribozyme variant] | 1.17 | 0.523 | 0.998 | 0.452 | 0.879 | 0.838
30 | CCACACUUAAAGCCAUCGGUC [Fam1B.1 aminoacylation ribozyme variant] | 1.11 | 1.06 | 0.992 | 0.617 | 0.801 | 0.913
31 | CCACACUUCAAACAAUCGCUC [Fam1B.1 aminoacylation ribozyme variant] | 1.33 | 0.765 | 1.1 | 1.32 | 0.869 | 1.29
32 | CCACACUUCAAACAAUCGGCC [Fam1B.1 aminoacylation ribozyme variant] | 2.19 | 7.9 | 1.77 | 8.32 | 1.96 | 1.61
33 | CCACACUUCAAACAAUCGGUA [Fam1B.1 aminoacylation ribozyme variant] | 1.02 | 1.47 | 0.873 | 1.62 | 0.947 | 0.734
34 | CCACACUUCAAACAUUCGGUC [Fam1B.1 aminoacylation ribozyme variant] | 1.4 | 1.32 | 1.49 | 0.837 | 1.47 | 1.45
35 | CCACACUUCAACCAAUCGGGC [Fam1B.1 aminoacylation ribozyme variant] | 2.93 | 2.09 | 1.91 | 3.78 | 1.75 | 2.24
36 | CCACACUUCAACCAAUCGGUA [Fam1B.1 aminoacylation ribozyme variant] | 1.1 | 1.63 | 1.1 | 1.08 | 1.56 | 0.859
37 | CCACACUUCAACCAAUCGGUC [Fam1B.1 aminoacylation ribozyme variant] | 1.5 | 35.2 | 1.38 | 60.5 | 1.38 | 2.17
38 | CCACACUUCAACCACUCGGUC [Fam1B.1 aminoacylation ribozyme variant] | 1.28 | 0.978 | 1.18 | 0.849 | 1.24 | 1.1
39 | CCACACUUCAACCCAUCGGUC [Fam1B.1 aminoacylation ribozyme variant] | 1.72 | 1.04 | 1.34 | 0.791 | 1.11 | 1.24
40 | CCACACUUCAAGAAAUCUGUC [Fam1B.1 aminoacylation ribozyme variant] | 0.402 | 0.349 | 0.306 | 0.421 | 0.349 | 0.292
41 | CCACACUUCAAGACAUCGGUC [Fam1B.1 aminoacylation ribozyme variant] | 0.896 | 0.762 | 1 | 0.815 | 0.914 | 0.879
42 | CCACACUUCAAGCAAACGAUC [Fam1B.1 aminoacylation ribozyme variant] | 0.589 | 0.585 | 0.513 | 0.772 | 0.44 | 0.422
43 | CCACACUUCAAGCAACCAGUC [Fam1B.1 aminoacylation ribozyme variant] | 0.941 | 0.79 | 1.08 | 1.26 | 1.04 | 0.725
44 | CCACACUUCAAGCAACCCGUC [Fam1B.1 aminoacylation ribozyme variant] | 1.17 | 0.843 | 1.14 | 0.819 | 0.779 | 0.763
45 | CCACACUUCAAGCAACCGGUG [Fam1B.1 aminoacylation ribozyme variant] | 4 | 6.05 | 3.92 | 33.9 | 5.05 | 7.08
46 | CCACACUUCAAGCAAGCGGAC [Fam1B.1 aminoacylation ribozyme variant] | 1.15 | 0.604 | 0.959 | 0.42 | 1.16 | 0.794
47 | CCACACUUCAAGCAAGCGGGC [Fam1B.1 aminoacylation ribozyme variant] | 2.29 | 2.67 | 1.61 | 6.38 | 2.41 | 1.59
48 | CCACACUUCAAGCAAGUGGUC [Fam1B.1 aminoacylation ribozyme variant] | 0.611 | 0.536 | 0.441 | 0.777 | 0.43 | 0.449
49 | CCACACUUCAAGCAAUAGUUC [Fam1B.1 aminoacylation ribozyme variant] | 0.644 | 0.431 | 0.703 | 1.21 | 0.501 | 0.55
50 | CCACACUUCAAGCAAUCCGAC [Fam1B.1 aminoacylation ribozyme variant] | 0.703 | 0.28 | 0.612 | 0.729 | 0.516 | 0.586
51 | CCACACUUCAAGCAAUCCGGC [Fam1B.1 aminoacylation ribozyme variant] | 3.66 | 2.1 | 3.02 | 1.71 | 3.54 | 2.88
